Assay results published in patent publication US20080234198A1 (Eli Lilly, published 2008).

Experiments:
[1] = target: T1, rat VPAC1 receptor (rat, UniProt P30083 31-459); assay: cell-based or functional assay
T1 sequence (looked up): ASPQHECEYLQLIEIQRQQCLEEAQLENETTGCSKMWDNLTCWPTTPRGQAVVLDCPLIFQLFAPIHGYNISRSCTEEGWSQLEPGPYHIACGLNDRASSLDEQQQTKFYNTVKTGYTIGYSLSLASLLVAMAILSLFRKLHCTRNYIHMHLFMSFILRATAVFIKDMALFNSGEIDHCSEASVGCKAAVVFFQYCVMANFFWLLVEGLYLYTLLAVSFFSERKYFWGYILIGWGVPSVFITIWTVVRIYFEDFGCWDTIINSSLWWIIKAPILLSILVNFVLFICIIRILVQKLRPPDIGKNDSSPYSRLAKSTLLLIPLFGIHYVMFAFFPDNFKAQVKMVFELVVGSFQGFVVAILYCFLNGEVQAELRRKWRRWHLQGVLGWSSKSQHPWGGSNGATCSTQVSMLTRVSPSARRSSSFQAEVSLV

[2] = target: T2, rat VPAC2 receptor (rat, UniProt P35000 23-437); assay: cell-based or functional assay
T2 sequence (looked up): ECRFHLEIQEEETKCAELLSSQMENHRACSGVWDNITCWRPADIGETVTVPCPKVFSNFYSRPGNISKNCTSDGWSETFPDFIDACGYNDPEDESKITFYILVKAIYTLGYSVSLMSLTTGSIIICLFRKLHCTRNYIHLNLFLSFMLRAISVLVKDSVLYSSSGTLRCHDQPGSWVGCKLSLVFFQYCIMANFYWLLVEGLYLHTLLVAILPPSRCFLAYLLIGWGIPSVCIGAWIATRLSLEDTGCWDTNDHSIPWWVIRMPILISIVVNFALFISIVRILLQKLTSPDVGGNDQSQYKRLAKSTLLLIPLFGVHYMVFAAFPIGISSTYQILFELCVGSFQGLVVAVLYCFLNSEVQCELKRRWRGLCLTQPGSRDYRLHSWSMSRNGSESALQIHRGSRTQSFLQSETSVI

[3] = target: T3, human VPAC2 receptor (human, UniProt P41587 24-438); assay: cell-based or functional assay
T3 sequence (looked up): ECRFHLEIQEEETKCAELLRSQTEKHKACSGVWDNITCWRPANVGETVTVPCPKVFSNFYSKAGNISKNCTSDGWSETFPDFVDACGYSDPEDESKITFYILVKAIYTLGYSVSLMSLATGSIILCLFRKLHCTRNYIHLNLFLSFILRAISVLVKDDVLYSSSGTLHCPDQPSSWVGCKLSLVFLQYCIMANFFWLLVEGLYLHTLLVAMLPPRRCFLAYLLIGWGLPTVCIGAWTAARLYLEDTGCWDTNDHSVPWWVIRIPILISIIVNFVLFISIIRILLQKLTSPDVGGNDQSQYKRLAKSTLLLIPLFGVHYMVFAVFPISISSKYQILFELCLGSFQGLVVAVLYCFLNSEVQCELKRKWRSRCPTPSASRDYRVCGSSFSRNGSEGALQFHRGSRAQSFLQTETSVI

[4] = target: T3, human VPAC2 receptor; assay: filter binding, VPAC2 cell membranes, displacement of 125I-VIP
Procedure: Binding assays: Membrane prepared from a stable VPAC2 cell line (see Example 3) or from cells transiently transfected with human VPAC1 or PAC1 are used.
The assay plate is filled with 25 μL assay buffer, 25 μL membranes (2.5 μg) suspended in assay buffer, 25 μL agonist in assay buffer, and 25 μL tracer (about 40000 cpm) in assay buffer. The filled plate is incubated for 1 hour with shaking.
The transfer from assay plate to filter plate is conducted. The blocking buffer is aspirated by vacuum filtration and washed two times with flush buffer. 90 μL is transferred from the assay plate to the filter plate. The 90 μL transferred from assay plate is aspirated and washed three times with 200 μL flush buffer. The plastic support is removed. It is dried for 1 hour at 60° C. 30 μL Microscint is added. The count is performed.

Row | Binder | Rat VPAC1 Receptor: DiscoveRx: (EC50; nM) [1] | Rat VPAC2 Receptor: DiscoveRx: (EC50; nM) [2] | Human VPAC2 Receptor: Alphascreen (EC50; nM) [3] | Human VPAC2 Receptor: DiscoveRx (EC50; nM) [3] | IC50 [4]
1 | HSDAVFTEQYTXLRXQVAAXXYLQSIXXCGGPSSGAPPPC (C6-HSDAVFTEQY(OMe)TOrnLRAibQVAAAibOrnYLQSIOrnOrnC(PEG20K)GGPSSGAPPPC(PEG20K)-NH2) [P562] | 393 nM | 52.5 nM | 30.2 nM | 24.2 nM | 42.8 nM
2 | HSDAVFTEQYTXLRXQLAXXXYLQSIXXCGGPSSGAPPPS (C6-HSDAVFTEQY(OMe)TOrnLRAibQLAAbuAibOrnYLQSIOrnOrnC(PEG40K)GGPSSGAPPPS-NH2) [P566] | 52.7 nM | 13.1 nM | 11.8 nM | 7.8 nM | 8.2 nM
3 | HSDAVFTEQYTXLRXQLAXXXYLQSIXXCGGPSSGAPPPC (C6-HSDAVFTEQY(OMe)TOrnLRAibQLAAbuAibOrnYLQSIOrnOrnC(PEG20K)GGPSSGAPPPC(PEG20K)-NH2) [P572] | 94.5 nM | 10.8 nM | 11.2 nM | – | 14.9 nM
4 | HSDAVFTEQYTXLRXQLAXXXYLQXIXXGGPSSGAPPPCC (C6-HSDAVFTEQY(OMe)TOrnLRAibQLAAbuAibOrnYLQAibIOrnOrnGGPSSGAPPPC(PEG30K)C(PEG30K)-NH2) [P570] | 86.7 nM | 21.3 nM | 13.4 nM | 4.5 nM | 4.1 nM
5 | HSDAVFTEQYTXLRXQVAAXXYLQSIXXGGPSSGAPPPS (C6-HSDAVFTEQY(OMe)TOrnLRK(CO(CH2)2SPEG40K)QVAAAibOrnYLQSIOrnOrnGGPSSGAPPPS-NH2) [P485] | 735 nM | 42.5 nM | 44.5 nM | – | 17.3 nM
6 | HSDAVFTEQYTXLRXQLAXXXYLQXIXXGGPSSGAPPPCC (C6-HSDAVFTEQY(OMe)TOrnLRAibQLAAbuAibOrnY(OMe)LQAibIOrnOrnGGPSSGAPPPC(PEG20K)C(PEG20K)-NH2) [P574] | 163 nM | 33.8 nM | 21.2 nM | 36.1 nM | 32.3 nM
7 | HSDAVFTEQYTXLRXQLAXXXYLQXIXXCGGPSSGAPPPC (C6-HSDAVFTEQY(OMe)TOrnLRAibQLAAbuAibOrnYLQAibIOrnOrnC(PEG20K)GGPSSGAPPPC(PEG20K)-NH2) [P580] | 1.1 nM | 11.9 nM | 10.9 nM | – | 20.7 nM
8 | HSDAVFTEQYTXLRXQLAXXXYLQSIXXGGPSSGAPPPCC (C6-HSDAVFTEQY(OMe)TOrnLRAibQLAAbuAibOrnY(OMe)LQSIOrnOrnGGPSSGAPPPC(PEG20K)C(PEG20K)-NH2) [P582] | 137 nM | 31 nM | 20.3 nM | – | 48.3 nM
9 | HSDAVFTEQYTXLRXQLXAXXYLQSIXXGGPSSGAPPPCC (C6-HSDAVFTEQY(OMe)TOrnLRAibQLAbuAAibOrnYLQSIOrnOrnGGPSSGAPPPC(PEG20K)C(PEG20K)-NH2) [P590] | 245 nM | 6.9 nM | 4.1 nM | – | 7.4 nM
10 | HSDAVFTEQYTXLRXQLAXXXYXQSIXXGGPSSGAPPPCC (C6-HSDAVFTEQY(OMe)TOrnLRAibQLAAbuAibOrnYAibQSIOrnOrnGGPSSGAPPPC(PEG30K)C(PEG30K)-NH2) [P602] | 209 nM | 36.9 nM | 42.1 nM | 7.2 nM | 28 nM
11 | HSDAVFTEQYTRXRXQLAAXXYLQSIKXXGGPSSGAPPPC (C6-HSDAVFTEQY(OMe)TRAibRAibQLAAAibOrnY(OMe)LQSIKAibOrnGGPSSGAPPPC(PEG40K)-NH2) [P417] | 232 nM | 8.7 nM | 14.7 nM | – | 24.1 nM
12 | HSDAVFTEQYTXLRXQVAAXCYLQSIXXGGPSSGAPPPS (C6-HSDAVFTEQY(OMe)TOrnLRAibQVAAAibC(PEG40K)YLQSIOrnOrnGGPSSGAPPPS-NH2) [P460] | > 1000 nM | 1160 nM | 430 nM | – | 914 nM
